Assay results taken from patent US20250255972A1, “METHOD OF TREATING UVEITIS WITH MULTIVALENT PROTEIN-HYALURONIC ACID POLYMER CONJUGATE” (Valitor, Inc., priority 2022, published 2025).
Residue numbers refer to the chain shown, from its start. “Also recorded” adds a separate entry of the source.

Assays:
[1] = system: experimental autoimmune uveoretinitis (EAU) in rats; assay: Second rat EAU model, clinical score by slit lamp, Example 9; format: in vivo, Male Lewis rats; conditions: FIG. 7A, ITV, triamcinolone (40 μg) or conjugate #10 (19 μg), one day after ITV treatment, vs vehicle
Experimental: (§1) The efficacy of conjugate #10 was validated to provide a treatment effect that can sufficiently reduce the symptoms of uveitis. Male Lewis rats were divided into 4 groups (n=12 for EAU induced groups and n=8 for uninduced control) and randomized by weight. The groups received either conjugate #10 at 19 μg, triamcinolone (40 μg), or vehicle control. On Day 1, rats in the induced groups were immunized by a subcutaneous injection in each flank with 25 μg of interphotoreceptor retinoid-binding protein (IRBP) peptide R16 in 0.1 mL of complete Freund's adjuvant for 50 μg total. On days 4 and 8, rat eyes were treated bilaterally with a 5 μL intravitreal (ITV) injection of conjugate #10 or vehicle control, or 1 μL ITV injection of triamcinolone based on their assigned treatment. Prior to the start of the study and on days 3, 6, 10, 12 and 14, ocular inflammation was accessed by slit lamp microscopy and assigned a clinical EAU score of 0-4 based on the appearance of inflammation.

[2] = system: pro-inflammatory cytokines and inflammatory regulators in rat vitreous; assay: Cytokine analysis of rat vitreous 14 days after uveitis induction (Milliplex bead panel); format: in vivo, Male Lewis rats; conditions: rat eyes 14 days after uveitis induction; ITV triamcinolone 40 μg or conjugate #10 19 μg
Experimental: as §1
On day 14, animals were euthanized and one eye from each animal was dissected into vitreous and aqueous humor to perform for cytokine analysis. After dissection the aqueous humor from each group was pooled and all tissues were flash frozen. A milliplex Rat Cytokine/Chemokine magnetic bead panel (Millipore Cat #RECYMAG65K27PMX) was used to assess the relative cytokine concentrations in the tissues according to the manufacturer's protocol. Briefly, the ocular tissues were thawed on ice and the sample volume was measured. Then, assay buffer was added to the samples to achieve a final volume of 55 μL for duplicate readings and mixed well. Next, 25 μL of samples, standards or controls was added to the assay plate, mixed with 25 μL of beads and incubated at room temperature for 2 hours. The wells were washed on a magnetic plate washer and incubated with 25 μL of detection antibodies for one hour and then 25 μL of Streptavadin-Phycoerythrin for 30 minutes. Wells were washed on a magnetic plate washer and 125 μL of Sheath Fluid Plus was added per well and then read on the Luminex. The amount of cytokine recovered from each sample was normalized to the volume of tissue recovered and plotted.

Human TNFα = target: T1, Human TNFα (Homo sapiens, UniProt P01375); assay: Biolayer interferometry (BLI) binding kinetics, Human TNFα ligand; conditions: purified conjugate
T1 construct: Avi; His; purchased Acro Biosystems TNA-H82E3

TNFα = assay: Long-term 37° C. stability, change in Kon by BLI; format: physicochemical; conditions: FIG. 4B
Experimental: (§2) We then used the top performers from the thermal stability experiments in a long-term 37° C. stability studies. The MVPs were synthesized under sterile conditions and diluted to around 0.4 mg/mL in a sterile filtered human vitreous mimetic buffer (see Table 10) or remained in formulation buffer. The samples were either filtered using sterile 0.2 or 5 μm spin filters before use or mixed with 0.010% sodium azide as an anti-microbial agent. Then, several 100-150 μL aliquots of each sample were added to wells of a sterile 96 well plate with one day 0 aliquot reserved at 4° C. The remaining wells were filled with a sterile filtered human vitreous buffer+0.01% sodium azide to minimize evaporation. The plate was incubated in a standard tissue culture incubator at 37° C. with 5% CO2. At discrete timepoints, one aliquot from each sample was removed from the plate under sterile conditions and analyzed. […] Then, the protein concentration was measured to adjust for any differences in volume that may have occurred. […] To monitor changes in radius over time, the samples were spun for 5 minutes at 5000 g to remove any large aggregates or dust particles and the Rh was measured using DLS methods described above except that the instrument is at 37° C. and without any sample dilution.

[3] = target: T2, Human TNFα, Avi and His tagged (Acro Biosystems TNA-H82E3) (human, UniProt P01375 77-233); assay: BLI (Gator), Avi-tagged TNFα on streptavidin probes, conjugate as analyte, 1:1 global fit
T2 construct: Bought BLI ligand, loaded on streptavidin probes through the Avi tag; also called BLI ligand

[4] = Hydrodynamic radius by dynamic light scattering (DLS); format: physicochemical; conditions: 25° C.
[5] = Long-term 37° C. stability in vitreous mimetic buffer, radius by DLS; format: physicochemical; conditions: FIG. 4C; after 35 days at 37° C. in vitreous mimetic buffer
Experimental: as §2

[6] = system: experimental autoimmune uveoretinitis (EAU) in rats; assay: Rat experimental autoimmune uveoretinitis (EAU) model, Example 8; format: in vivo, Male Lewis rats; conditions: vs vehicle
Experimental: The efficacy of mu_anti-TNFα_aH_CYS MVPs were validated to provide a treatment effect that can sufficiently reduce the symptoms of uveitis. A rat model of experimental autoimmune uveoretinitis (EAU) was used as a model of chronic posterior uveitis in humans. This model was induced by systemic immunization with the uveitogenic interphotoreceptor retinoid-binding protein (IRBP), and symptoms of uveitis appeared after 9-11 days. Rats were treated intravitreally with 12.5 μg of mu_anti-TNFα_aH_CYS MVP (Conjugate #7). As a positive control, dexamethasone was used.
Male Lewis rats were divided into 4 groups (n=8) and randomized by weight. […] On Day 1, rats were immunized by a subcutaneous injection at the base of the tail and in each thigh with 30 μg of bovine IRBP peptide R16 in 0.2 mL of Freund's adjuvant. On days 8 and 10, rat eyes were treated bilaterally with a 5 μL ITV injection of either dose of their assigned treatment. Prior to the start of the study and on days 7, 9, 11, 14, we assessed ocular inflammation by slit lamp microscopy and assigned a clinical EAU score of 0-4 based on the appearance of inflammation. On day 14, animals were euthanized, one eye from each animal was processed for histopathology, and assigned a score of 0-4 based on the appearance of inflammation and cell infiltration. EAU and histopathology were scored based on published standardized scoring systems.

T1 sequence (P01375 77-233 limits assumed): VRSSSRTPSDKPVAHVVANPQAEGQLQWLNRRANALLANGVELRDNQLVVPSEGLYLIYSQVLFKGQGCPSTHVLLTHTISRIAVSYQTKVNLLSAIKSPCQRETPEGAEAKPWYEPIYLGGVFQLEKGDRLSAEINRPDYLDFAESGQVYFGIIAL
T2 sequence (P01375 77-233 limits assumed): as above

For `C[C@]12C=CC(=O)C=C1CC[C@H]1[C@@H]3C[C@@H](O)[C@](O)(C(=O)CO)[C@@]3(C)C[C@H](O)[C@@]12F` [Triamcinolone, triamcinolone, reference compound], the “Average inflammation score (clinical EAU score, 0=none to 4=severe)” value [1] was “decreased inflammation compared to the vehicle control”, the “IFNγ concentration in the vitreous ± SD” value [2] was 2.540 ± 1.804 ng/mL and the “IL-1α concentration in the vitreous ± SD” value [2] was 1.321 ± 0.844 ng/mL. The “IL-1β concentration in the vitreous ± SD” value [2] was 0.721 ± 0.445 ng/mL, the “IL-6 concentration in the vitreous ± SD” value [2] was 19.936 ± 17.156 ng/mL and the “MCP-1 concentration in the vitreous ± SD” value [2] was 2.705 ± 2.640 ng/mL. The “TNFα concentration in the vitreous ± SD” value [2] was 0.046 ± 0.051 ng/mL.

B1: Conjugate #5: (SEQ ID NO:103, anti-TNFα VHH (mouse)-aH)+HyA (850 kDa) conjugate, MP2H linker, valency 121 (conjugate)
VHH: QVQLQDSGGGLVQAGGSLRLSCAASGGTFSSIIMAWFRQAPGKEREFVGAVSWSGGTTVYADSVLGRFEISRDSARKSVYLQMNSLKFPEDTAVYYCAARPYQKYNWASASYNVWGQGTQVTVSSAEAAAKEAAAKEAAAKAGC
modifications: hyaluronic acid 850 kDa conjugate via MP2H linker; anti-TNFalpha VHH (mouse)- aH
With B1 the Kd (Human TNFα) was at most 0.001 nM and the “change in association constant of TNFα binding” value (TNFα; after 5 days at 37° C.) was “dramatically decreased”.

B2: (SEQ ID NO:149)+HyA conjugate #12, valency 99 (other)
VHH: QVQLVESGGGLVQPGGSLRLSCAASGGTFSSIIMAWFRQAPGKEREFVGAVSWSGGTTVYADSVKGRFTISRDNSKNTVYLQMNSLRPEDTAVYYCAARPYQKYNWASASYNVWGQGTLVTVSSAEAAAKEAAAKEAAAKAGC
modifications: C-terminal cysteine thiol of the aH peptide linker joined through the MP2H organic linker to hyaluronic acid
With B2 the Kd [3] was at most 1 pM.

B3: Conjugate #13: (SEQ ID NO:150, Hu aTNFα 5MUT aH_CYS)+hyaluronic acid conjugate, MP2H linker, valency 102 (conjugate)
VHH: B2 VHH with G49A, V51I
modifications: hyaluronic acid conjugate, MP2H linker; Hu_aTNFaMu_5MUT aH_CYS
In the case of B3, the “Rh (nm, DLS)” value [4] is reported as 71.64 nm.

B4: Conjugate #6: (SEQ ID NO:104, anti-TNFα 3MUT VHH (mouse)-aH)+HyA (850 kDa) conjugate, MP2H linker, valency 51 (conjugate)
VHH: B2 VHH with V5Q, P14A, N74S, S75A, K76R, N77K, T78S, R87K, L119Q
modifications: hyaluronic acid 850 kDa conjugate via MP2H linker; anti-TNFalpha 3MUT VHH (mouse)- aH
In the case of B4, the Kd (Human TNFα) is reported as at most 0.001 nM, the “Rh (nm, DLS)” value [4] is reported as 76.8 nm and the “change in association constant of TNFα binding” value (TNFα; after 35 days at 37° C.) is reported as “minimal change”. For the same molecule, the “conjugate size (DLS) as share of the original radius” value [5] was “about 75%”.

B5: Conjugate #10: (SEQ ID NO:104, anti-TNFα 3MUT VHH (mouse)-aH)+HyA (850 kDa) conjugate, MP2H linker, valency 96.5 (conjugate)
VHH: B2 VHH with V5Q, P14A, N74S, S75A, K76R, N77K, T78S, R87K, L119Q
modifications: hyaluronic acid 850 kDa conjugate, MP2H linker; anti-TNFalpha 3MUT VHH (mouse)- aH
For B5, the Kd (Human TNFα) was at most 0.001 nM, the “Rh (nm, DLS)” value [4] was 99.14 nm and the “Average inflammation score (clinical EAU score, 0=none to 4=severe)” value [1] was “comparable to triamcinolone; also recorded: decreased inflammation compared to the vehicle control”. The “IFNγ concentration in the vitreous ± SD” value [2] was 3.116 ± 1.436 ng/mL, the “IL-1α concentration in the vitreous ± SD” value [2] was 1.511 ± 0.709 ng/mL and the “IL-1β concentration in the vitreous ± SD” value [2] was 0.667 ± 0.271 ng/mL. The “IL-6 concentration in the vitreous ± SD” value [2] was 25.565 ± 15.702 ng/mL, the “MCP-1 concentration in the vitreous ± SD” value [2] was 3.843 ± 2.499 ng/mL and the “TNFα concentration in the vitreous ± SD” value [2] was 0.058 ± 0.038 ng/mL.

B6: Conjugate #12: (SEQ ID NO:149, Hu aTNFα 3MUT aH_CYS)+hyaluronic acid conjugate, MP2H linker, valency 99 (conjugate)
VHH: B2 VHH
modifications: hyaluronic acid conjugate, MP2H linker; Hu_aTNFaMu_3MUT aH_CYS
For B6, the “Rh (nm, DLS)” value [4] was 70.12 nm.

B7: Conjugate #7: (SEQ ID NO:104, anti-TNFα 3MUT VHH (mouse)-aH)+HyA (850 kDa) conjugate, MP2H linker, valency 98 (conjugate)
VHH: B2 VHH with V5Q, P14A, N74S, S75A, K76R, N77K, T78S, R87K, L119Q
modifications: hyaluronic acid 850 kDa conjugate via MP2H linker; anti-TNFalpha 3MUT VHH (mouse)- aH
For B7, the Kd (Human TNFα) was at most 0.001 nM, the “Rh (nm, DLS)” value [4] was 76.42 nm and the “conjugate size (DLS) as share of the original radius” value [5] was “about 75%”. For the same molecule, the “Average inflammation score (0=none to 4=severe)” value ([6]; FIG. 6A, rat EAU, ITV, or Conjugate #7 (12.5 μg), n=8, one day after ITV treatment) was “decreased inflammation compared to the vehicle control” and the “Average histology inflammation score (0=none to 4=severe)” value ([6]; FIG. 6B, rats sacrificed 14 days after model induction, p<0.05) was “less inflamed than vehicle treated eyes”.

B8: (SEQ ID NO:150)+HyA conjugate #13, valency 102 (other)
VHH: B2 VHH with G49A, V51I
modifications: C-terminal cysteine thiol of the aH peptide linker joined through the MP2H organic linker to hyaluronic acid
notes: also called Conjugate ID 13
In the case of B8, the Kd [3] is reported as at most 1 pM.
